These results are taken from article PMC9402891, “Case report: Biochemical and clinical phenotypes caused by cysteine substitutions in the epidermal growth factor-like domains of fibrillin-1” (Frontiers in Genetics, 2022).

In this assay the target is T1, latent transforming growth factor beta-binding protein 1 fragment LTBP1^1141-1395 (LTBP1^cbEGF14cbEGF15) (human, UniProt Q14766-2 1141-1395).
T1 construct: LTBP1, residues 1141-1395: cbEGF14, TB3, EGF3 and cbEGF15 domains (the C-terminal region); the domains named are the C-terminal ones, which fits the short isoform; also called LTBP1 polypeptides
T1 sequence (looked up): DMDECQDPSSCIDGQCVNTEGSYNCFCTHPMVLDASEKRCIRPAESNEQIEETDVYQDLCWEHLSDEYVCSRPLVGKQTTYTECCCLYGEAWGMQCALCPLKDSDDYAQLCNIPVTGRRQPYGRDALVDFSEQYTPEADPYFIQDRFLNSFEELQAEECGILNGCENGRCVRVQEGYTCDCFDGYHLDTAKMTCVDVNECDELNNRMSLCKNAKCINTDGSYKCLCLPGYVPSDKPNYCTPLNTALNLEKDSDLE
Briefly: SPR; immobilised partner not stated; running buffer 10 mM HEPES, 150 mM NaCl, 2 mM CaCl2, pH 7.4, 0.005% (v/v) Tween-20; regeneration 50 mM HCl; Biacore T200 (ProteOn system also named). Particulars: both partners purified. In general terms: SPR reads the build-up and loss of mass on a sensor chip optically.

For orientation: Kd means the free concentration of one partner at which half of the binding sites on the other are occupied at equilibrium, for simple one-to-one binding. A low value points to tighter binding.

B1: human fibrillin-1 fragment FBN1^113-287 (FBN1^E2cbEGF1), wild type (domain or fragment)
chain: not shown
notes: fibrillin-1, human, residues 113-287: EGF2, EGF3, Hyb1 and cbEGF1 domains; one of them ends in L288, which may be a residue from the vector; also called wild-type fibrillin-1 polypeptides
Turning to B1, the dissociation constant Kd amounted to 1530 nM. In other words, the single-digit micromolar range.

B2: human fibrillin-1 fragment FBN1^113-287+C160Y (FBN1^E2cbEGF1+C160Y) (domain or fragment)
chain: not shown
notes: fibrillin-1, human, residues 113-287 (EGF2, EGF3, Hyb1 and cbEGF1 domains) with the patient mutation C160Y (c.479G>A) in EGF3; also called mutant recombinant fibrillin-1 polypeptides
On to B2, for which the affinity, expressed as Kd, was 1230 nM.
